Key:
[1] = system: K6 mRNA in spinal cord; test: K6 mRNA in spinal cord after kainic acid excitotoxic injury; assay type: in vivo, rat; conditions: three days after intraperitoneal KA
Excerpt: Levels of K6 mRNA in adult rat spinal cord were increased in both white and gray matter following kainic acid (KA)-induced excitotoxic injury. Dark-field photomicrographs (FIG. 1) show the autoradiographic localization of K6 mRNA in a transverse section through the spinal cord of a control rat, and in parallel sections of paired experimental rats at 3 and 7 days after intraperitoneal injection of KA. By three days after KA treatment, K6 mRNA was 2-fold higher in the white matter and 1.5-fold higher in the dorsal horn (DH) and ventral horn (VH) of the spinal cord gray matter, compared to controls (P<0.05).

[2] = system: collagen type I
[3] = system: fibronectin
[4] = system: laminin
[5] = molecular target: T1, recombinant rat myelin oligodendrocyte glycoprotein (αMOG), extracellular domain, amino acids 1-125 (UniProt Q63345)
T1 sequence: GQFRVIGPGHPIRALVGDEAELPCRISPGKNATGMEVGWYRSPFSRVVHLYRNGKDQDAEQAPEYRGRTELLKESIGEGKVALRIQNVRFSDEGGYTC

[6] = molecular target: rat myelin basic protein (MBP) (UniProt P02688)
Chain of UniProt P02688 (P02688 2-195): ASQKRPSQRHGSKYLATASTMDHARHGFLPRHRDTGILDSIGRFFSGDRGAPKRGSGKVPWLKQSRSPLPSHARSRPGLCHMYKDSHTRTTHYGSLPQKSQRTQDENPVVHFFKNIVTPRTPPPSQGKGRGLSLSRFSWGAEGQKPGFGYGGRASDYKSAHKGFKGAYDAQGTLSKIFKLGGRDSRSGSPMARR

Molecule: C=C(C)[C@H]1CN[C@H](C(=O)O)[C@H]1CC(=O)O [KA, kainic acid]
- K6 mRNA in dorsal horn (DH) and ventral horn (VH) gray matter compared to controls [1]: 1.5 fold
- K6 mRNA in spinal cord white matter compared to controls [1]: 2 fold

Molecule: K6 (recombinant; species not stated where used)
- degradation on 7.5% SDS-PAGE [2]: Collagen type I was degraded within 5 minutes of K6 addition
- degradation on 7.5% SDS-PAGE [3]: Fibronectin was partially degraded within 1 hour of K6 addition and was completely degraded by 24 hours
- degradation on 7.5% SDS-PAGE [4]: Laminin was partially degraded by one hour after K6 addition, and was completely degraded by 16 hours

Molecule: recombinant rat K6 (r-K6)
- degradation on 16.5% Tricine SDS-PAGE [5]: αMOG was partially degraded by 1 hour after addition of K6, and was completely degraded by 4 hours
- degradation on 16.5% Tricine SDS-PAGE [6]: MBP was partially degraded by 10 minutes after addition of K6, and showed much greater levels of degradation at 30 minutes and 60 minutes
